Numbering of substitutions follows the chain as printed.
T1: Rad50-V1269M (S. cerevisiae, UniProt P12753 1-1312, V1269M)
T1 construct: Allele isolated after ethyl methanesulfonate mutagenesis; also called Rad50-V1269M mutant; purified Rad50-V1269M; source: overexpressed in yeast, purified (procedure devised for the wild-type protein)
T1 sequence (looked up): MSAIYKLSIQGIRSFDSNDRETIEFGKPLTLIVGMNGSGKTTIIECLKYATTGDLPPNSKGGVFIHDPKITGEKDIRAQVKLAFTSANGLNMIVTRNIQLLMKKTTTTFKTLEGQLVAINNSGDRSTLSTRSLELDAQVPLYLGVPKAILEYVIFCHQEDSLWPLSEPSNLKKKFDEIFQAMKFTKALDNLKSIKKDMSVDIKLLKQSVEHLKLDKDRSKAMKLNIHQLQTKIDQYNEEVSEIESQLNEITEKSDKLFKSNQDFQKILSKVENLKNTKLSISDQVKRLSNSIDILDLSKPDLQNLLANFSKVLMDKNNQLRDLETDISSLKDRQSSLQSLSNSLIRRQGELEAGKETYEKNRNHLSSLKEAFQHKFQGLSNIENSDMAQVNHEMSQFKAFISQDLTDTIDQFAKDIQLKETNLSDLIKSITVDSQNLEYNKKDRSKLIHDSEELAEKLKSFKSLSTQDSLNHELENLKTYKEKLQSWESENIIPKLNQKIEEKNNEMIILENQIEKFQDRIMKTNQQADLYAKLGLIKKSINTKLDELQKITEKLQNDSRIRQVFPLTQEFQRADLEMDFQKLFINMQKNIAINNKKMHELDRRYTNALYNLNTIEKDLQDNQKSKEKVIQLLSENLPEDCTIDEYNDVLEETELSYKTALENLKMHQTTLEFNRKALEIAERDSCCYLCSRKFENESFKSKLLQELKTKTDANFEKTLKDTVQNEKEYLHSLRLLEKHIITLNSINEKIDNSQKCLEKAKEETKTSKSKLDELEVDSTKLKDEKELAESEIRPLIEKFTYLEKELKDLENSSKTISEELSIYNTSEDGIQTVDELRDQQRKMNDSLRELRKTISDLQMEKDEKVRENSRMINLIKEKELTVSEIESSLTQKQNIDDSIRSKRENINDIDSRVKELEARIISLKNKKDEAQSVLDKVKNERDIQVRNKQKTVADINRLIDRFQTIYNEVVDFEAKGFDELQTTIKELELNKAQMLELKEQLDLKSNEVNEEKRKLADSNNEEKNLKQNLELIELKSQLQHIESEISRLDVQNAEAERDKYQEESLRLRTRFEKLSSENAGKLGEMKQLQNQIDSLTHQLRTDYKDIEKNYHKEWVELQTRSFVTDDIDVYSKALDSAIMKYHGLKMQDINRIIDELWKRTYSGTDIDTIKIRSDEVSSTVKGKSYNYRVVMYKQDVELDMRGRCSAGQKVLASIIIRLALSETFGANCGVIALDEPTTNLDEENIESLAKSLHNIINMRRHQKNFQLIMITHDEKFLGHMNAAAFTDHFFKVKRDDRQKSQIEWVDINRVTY

T2: Rad50 (S. cerevisiae, UniProt P12753 1-1312)
T2 construct: Rad50, S. cerevisiae, subunit of the MRX complex; also called wild-type Rad50; purified Rad50; source: overexpressed in yeast, purified
T2 sequence (looked up): T1 sequence (looked up) with M1269V

B1: (His)6-tagged Rif2 (natural protein, S. cerevisiae, UniProt Q06208 1-395, looked up)
chain: MEHVDSDFAPIRRSKKVVDSDKIVKAISDDLEQKNFTVLRKLNLVPIKKSVSSPKVCKPSPVKERVDHVFYQKFKSMALQELGTNYLSISYVPSLSKFLSKNLRSMKNCIVFFDKVEHIHQYAGIDRAVSETLSLVDINVVIIEMNDYLMKEGIQSSKSKECIESMGQASYSGQLDFEASEKPSNHTSDLMMMVMRKINNDESIDHIVYFKFEQLDKLSTSTIIEPSKLTEFINVLSVLEKSNNIAFKVLIYSNNVSISSLLSTSLKKKLNTKYTVFEMPILTCAQEQEYLKKMIKFTFDSGSKLLQSYNSLVTCQLNNKESNLAIFFEFLKVFPHPFTYLFNAYTEIIVQSRTFDELLDKIRNRLTIKNYPHSAYNFKKNQRLPLKLTRKVHDR
notes: Rif2, S. cerevisiae; expressed from pET-Rif2 (gift from K. Sugimoto); No removal of the tag is described; the final preparation is called (His)6-Rif2; also called (His)6-Rif2; purified Rif2; source: E. coli BL21 Rosetta, purified (Ni-NTA, SP Sepharose, Mono S, Superdex 200)
B2: Mre11 (natural protein, S. cerevisiae, UniProt P32829 1-692, looked up)
chain: MDYPDPDTIRILITTDNHVGYNENDPITGDDSWKTFHEVMMLAKNNNVDMVVQSGDLFHVNKPSKKSLYQVLKTLRLCCMGDKPCELELLSDPSQVFHYDEFTNVNYEDPNFNISIPVFGISGNHDDASGDSLLCPMDILHATGLINHFGKVIESDKIKVVPLLFQKGSTKLALYGLAAVRDERLFRTFKDGGVTFEVPTMREGEWFNLMCVHQNHTGHTNTAFLPEQFLPDFLDMVIWGHEHECIPNLVHNPIKNFDVLQPGSSVATSLCEAEAQPKYVFILDIKYGEAPKMTPIPLETIRTFKMKSISLQDVPHLRPHDKDATSKYLIEQVEEMIRDANEETKQKLADDGEGDMVAELPKPLIRLRVDYSAPSNTQSPIDYQVENPRRFSNRFVGRVANGNNVVQFYKKRSPVTRSKKSGINGTSISDRDVEKLFSESGGELEVQTLVNDLLNKMQLSLLPEVGLNEAVKKFVDKDEKTALKEFISHEISNEVGILSTNEEFLRTDDAEEMKALIKQVKRANSVRPTPPKENDETNFAFNGNGLDSFRSSNREVRTGSPDITQSHVDNESRITHISQAESSKPTSKPKRVRTATKKKIPAFSDSTVISDAENELGDNNDAQDDVDIDENDIIMVSTDEEDASYGLLNGRKTKTKTRPAASTKTASRRGKGRASRTPKTDILGSLLAKKRK
notes: Mre11, S. cerevisiae, subunit of the MRX complex; also called purified Mre11; source: overexpressed in yeast, purified
B3: Xrs2 (natural protein, S. cerevisiae, UniProt P33301 1-854, looked up)
chain: MWVVRYQNTLEDGSISFISCCLQAFKTYSIGRSSKNPLIIKNDKSISRQHITFKWEINNSSDLKHSSLCLVNKGKLTSLNKKFMKVGETFTINASDVLKSTIIELGTTPIRIEFEWINEVWNIPPHLTQFRTMLSEYGISTEISINDIPANLMISDYPKSEDNSIRELYALVSTIPMKKSRFLMELCNTLLPTSKTNLKFDEMWNDMISNPEYNVFDFDPNILLSKFMRLNNIRVLTTIKSEPRLSSLLRTFNINLFAFDNIDSLYKYVDSLEASTEYLILTTTDKKENGKILCTIKTMLTSIIDGTLSAVINMKGASSRTLDNGKFDQISEGMSTILKTSRAPEVEASPVVSKKRKLNRRRVLPLDSLDFFAGGLSTKTLSENRSLTDAKRLNCGAESKTVISSPNIAEADEKHAPFLQNALKPTEDIGKKSGHSSPGAIIVSSPNLGTVNTSEDSLDKSLQSHKLPQPSLPEVAGIGSQTISSNSADYETAAVNSMDDAEVTKNFRVNHHQNIEQPSKNIRKLSNYSREISSPLQENCKSPVKELSIKEKSGTPHAFVEAIQETKNREVKRVKSTIVELKDEELSEEAINQLKNLAIVEPSNNLLRKSFDSEGNKTSRTTEKWENSLMEPEWHKRKNFKTFVKVRPKSKAHKEEGKNNTQSSDFIRNAAFLITRNYVPLKKYSKKDTTTKWGTEENEDMFALTEMERFGSNTFMSDNINSNTIQKRSQALNRFTNEDSSNEGEEDSFSFSRCSGTAASVQPLKNKIFITDEDDLGDIDDKSDRLNHRENNRNLFVVKEMNLRPNLSEECSKQSRHSRSATSRSRGSFGASNNGDGDDDDDDGPKFTFKRRKG
notes: Xrs2, S. cerevisiae, subunit of the MRX complex; also called purified Xrs2; source: overexpressed in yeast, purified

How the values were obtained:
Conditions in all cases: both partners purified
[1] = target: T3, MR^V1269MX complex (Mre11-Rad50-V1269M-Xrs2) (S. cerevisiae, UniProt P32829 1-692; P12753 1-1312; P33301 1-854, V1269M); assay: pull-down; Flag-tagged Tel1 (50 ng) incubated with MR^V1269MX (100 ng) in the absence or presence of Rif2 (100 ng); captured on anti-Flag resin; immunoblotting
T3 construct: Mre11, S. cerevisiae; as m3; Rad50, S. cerevisiae, with V1269M; as m2; Xrs2, S. cerevisiae; as m4; also called mutant MRX complex; source: subunits overexpressed in yeast and purified, assembled and separated by gel filtration; copies: + +

[2] = target: T1, Rad50-V1269M; assay: SEC; Rad50 (or Rad50-V1269M), Mre11 and Xrs2 incubated together 5 h on ice; assembled complex separated from unassembled proteins on a Sephacryl S-400 gel filtration column; 0-4°C
[3] = target: T2, Rad50; assay: as above

Binder | binding result [1] | binding result [2] | binding result [3]
B1 | binds | – | –
B2 | – | binds | –
B3 | – | binds | binds

— publication PMC4762649, “Tel1 and Rif2 Regulate MRX Functions in End-Tethering and Repair of DNA Double-Strand Breaks” (PLoS Biology, 2016)
